Measured values published in patent US20080160023.

Columns and labels:
[1] = molecular target: T1, recombinant rat Acaa1 with 6xHis N-terminal tag, P07871
T1 chain: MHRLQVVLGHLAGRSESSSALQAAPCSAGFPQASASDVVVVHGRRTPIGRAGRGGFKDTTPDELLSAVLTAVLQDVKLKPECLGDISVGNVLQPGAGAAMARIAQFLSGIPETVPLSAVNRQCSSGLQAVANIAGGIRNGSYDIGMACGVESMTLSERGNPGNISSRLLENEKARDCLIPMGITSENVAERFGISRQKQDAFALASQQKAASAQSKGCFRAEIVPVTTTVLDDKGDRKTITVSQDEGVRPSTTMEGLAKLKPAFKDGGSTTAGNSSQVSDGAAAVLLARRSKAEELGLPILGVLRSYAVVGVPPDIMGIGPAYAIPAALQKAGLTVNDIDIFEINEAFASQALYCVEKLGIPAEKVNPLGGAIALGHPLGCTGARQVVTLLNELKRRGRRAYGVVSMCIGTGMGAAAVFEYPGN

[2] = molecular target: T2, recombinant mouse Scp2 with C-terminal myc-6xHis tag, P32020
T2 chain: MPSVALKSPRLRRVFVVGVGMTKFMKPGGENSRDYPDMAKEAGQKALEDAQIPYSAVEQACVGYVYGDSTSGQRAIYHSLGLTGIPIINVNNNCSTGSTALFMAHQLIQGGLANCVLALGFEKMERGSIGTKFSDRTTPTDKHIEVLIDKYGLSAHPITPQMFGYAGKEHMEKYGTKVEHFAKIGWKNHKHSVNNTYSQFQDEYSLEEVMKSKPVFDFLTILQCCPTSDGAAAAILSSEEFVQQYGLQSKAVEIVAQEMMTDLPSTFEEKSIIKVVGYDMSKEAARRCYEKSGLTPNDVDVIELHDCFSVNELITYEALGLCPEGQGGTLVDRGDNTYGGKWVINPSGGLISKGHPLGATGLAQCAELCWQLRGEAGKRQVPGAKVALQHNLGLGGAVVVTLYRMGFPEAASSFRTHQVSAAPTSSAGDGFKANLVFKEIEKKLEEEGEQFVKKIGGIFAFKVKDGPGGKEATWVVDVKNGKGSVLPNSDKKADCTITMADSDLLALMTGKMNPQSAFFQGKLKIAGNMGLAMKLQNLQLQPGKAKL

[3] = molecular target: T3, recombinant rat Acox1 with C-terminal myc-6xHis tag, P07872
T3 chain: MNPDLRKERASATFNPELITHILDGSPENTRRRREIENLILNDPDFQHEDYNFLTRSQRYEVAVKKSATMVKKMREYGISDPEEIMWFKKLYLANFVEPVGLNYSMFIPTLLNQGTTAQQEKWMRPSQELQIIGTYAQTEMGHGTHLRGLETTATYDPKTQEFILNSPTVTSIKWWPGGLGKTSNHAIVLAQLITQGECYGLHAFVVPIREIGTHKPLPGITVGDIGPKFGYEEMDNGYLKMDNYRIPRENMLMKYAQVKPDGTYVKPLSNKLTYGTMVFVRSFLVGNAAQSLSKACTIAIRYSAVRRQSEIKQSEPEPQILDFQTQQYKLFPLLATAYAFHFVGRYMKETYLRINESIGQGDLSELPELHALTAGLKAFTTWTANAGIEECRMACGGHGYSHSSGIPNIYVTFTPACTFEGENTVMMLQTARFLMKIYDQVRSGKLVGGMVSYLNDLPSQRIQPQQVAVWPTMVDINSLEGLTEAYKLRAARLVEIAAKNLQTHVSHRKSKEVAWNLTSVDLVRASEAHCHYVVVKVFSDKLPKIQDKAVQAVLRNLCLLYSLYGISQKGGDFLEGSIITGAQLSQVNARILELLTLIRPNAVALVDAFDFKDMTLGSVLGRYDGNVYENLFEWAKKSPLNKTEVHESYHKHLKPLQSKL

B1: recombinant Tysnd1-FLAG purified from COS-7 cells (protein)
chain 1: MGRQWGPSMRVAEQAGCVVSASRAGQPDAGSWSCSGVILSRNPGLVLCHGGIFTPFLRTGSAALTQTGTAFLPGDSCSDDLRLHVQWGPTAASPAGRADQELPGLCTPQCASLGLEPGAPSRARARPLQPPRPAQLLLLLSCPAFRSHFARLFGADAVDQWHFVSSAPDDAVSEEEEEDQLRALGWFALLRVQRGAAAEERRGPVVTVAPLGAVVKGAPLLACGSPFGAFCPDIFLNTLSRGVLSNAAGPLLLTDARCLPGTEGGGVFAARPAGALVALVAAPLCWKAREWVGLTLLCAAAPLLQVARWALARLHPGSASLSVLLPPPDVSTPRGLPLRDLGPPWAAAAVLVECGTVWGSGVVVAPRLVVTCRHVAPREAARVLVHSATPKNVAIWGQVVFATQETSPYDIAVVSLEEELNGVPTPVPAGHFHEGEPVSVVGFGVFGQACGPSVTSGILSAVVRVDGSPVMLQTTCAVHGGSSGGPLFSSGSGDLLGIVASNTRDNNTGATYPHLNFSIPITVLQPALKQYSQTGDLGGLRELDHTTEPVRVVWRLQRPLSE
chain 2: VPRSKL
in vitro cleavage (Amido Black staining of the membrane) [1]: Incubation of Tysnd1 with Acaa1 resulted in the removal of 3 kDa PTS2-containing N-terminal propeptide to produce mature Acaa1 | in vitro cleavage (Western blot with anti-cMyc antibody) [2]: Scp2 was processed to generate C-terminal fragment of 16 kDa | in vitro cleavage (Western blot with anti-cMyc antibody) [3]: Acox1 was cleaved to produce C-terminal fragment of 28 kDa
